Values quoted from earlier work as cited in paper PMC6258349.
Read-outs that look alike come from different tables or passages of the source.

How the values were obtained:
[1] = target: chaperone-adhesin FimC-FimH (Escherichia coli) (UniProt P31697)
[2] = target: chaperone-adhesin FimC-FimH (Escherichia coli) (UniProt P31697); remark: listed apart in the source

UniProt P31697, sequence (P31697 37-241, chain 1 of 2): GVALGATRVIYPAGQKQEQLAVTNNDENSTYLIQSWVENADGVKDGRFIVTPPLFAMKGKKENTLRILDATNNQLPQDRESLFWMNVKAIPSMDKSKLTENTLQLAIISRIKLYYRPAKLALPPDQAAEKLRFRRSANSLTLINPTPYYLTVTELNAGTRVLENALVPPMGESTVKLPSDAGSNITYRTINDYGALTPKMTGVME
UniProt P31697, sequence (P08191 22-300, chain 2 of 2, further chain): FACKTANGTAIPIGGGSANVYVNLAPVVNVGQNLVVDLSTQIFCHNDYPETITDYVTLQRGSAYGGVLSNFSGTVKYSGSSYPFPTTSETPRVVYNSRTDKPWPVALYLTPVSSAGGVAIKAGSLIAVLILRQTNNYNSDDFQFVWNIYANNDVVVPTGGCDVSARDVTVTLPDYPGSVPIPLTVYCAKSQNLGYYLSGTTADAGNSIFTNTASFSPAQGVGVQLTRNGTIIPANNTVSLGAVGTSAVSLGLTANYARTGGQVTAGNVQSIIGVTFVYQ

Kd [1] [nM]	Kd [2] [nM]	Substance
40		FimD usher CTD (from UniProt P30130)
	389	FimD usher NTD (from UniProt P30130)
